Assay [1] concerns the target RBD-Fc (SARS-CoV; human) (UniProt P59594). The assay can be described thus: competitive ELISA on coated RBD-Fc; competitor: biotinylated 11E12. For orientation: An ELISA detects its analyte on a solid surface through an enzyme-linked reagent.
The target of assay [2] is SARS-CoV S protein on SARS pseudovirus (SARS-CoV) (UniProt P59594). The assay can be described thus: cell-based or functional assay.
Assay [3] deals with RBD-Fc (SARS-CoV; human) (UniProt P59594). Kind of assay: competitive ELISA on coated RBD-Fc; competitor: biotinylated 10E7.
The target is the same in assay [4]. Kind of assay: competitive ELISA on coated RBD-Fc; competitor: biotinylated 33G4.
Assay [5] has the same target. The assay can be described thus: competitive ELISA on coated RBD-Fc; competitor: biotinylated 45B5.
Assay [6] has the same target. Kind of assay: competitive ELISA on coated RBD-Fc; competitor: biotinylated 17H9.
The target is the same in assay [7]. Kind of assay: ELISA, antigen coated 1 µg/ml, mAb 10 µg/ml.
A further assay has as its target S1-C9 (SARS-CoV) (UniProt P59594). Kind of assay: ELISA, antigen coated 1 µg/ml, mAb 10 µg/ml.
The target in assay [8] is DTT-reduced S1-C9 (SARS-CoV) (UniProt P59594). The assay can be described thus: ELISA, antigen coated 1 µg/ml, mAb 10 µg/ml.
Assay [9] addresses DTT-reduced RBD-Fc (SARS-CoV; human) (UniProt P59594). Kind of assay: ELISA, antigen coated 1 µg/ml, mAb 10 µg/ml.

Where only a bound is given, the exact number is not on record here.

Our source for the % inhibition, ND50, neutralization of SARS pseudovirus infection of 293T/ACE2 cells and reactivity (absorbance values is US7629443.

One may read the % inhibition as the drop in the measured response relative to a control, in per cent. Consider 4D5 (antibody), for which the % inhibition is 10.6% with RBD-Fc (SARS-CoV; human) [1]; 13% with RBD-Fc (SARS-CoV; human) [3]; -11.1% with RBD-Fc (SARS-CoV; human) [4]; 1% with RBD-Fc (SARS-CoV; human) [5]; -10.5% with RBD-Fc (SARS-CoV; human) [6]. Moreover, the ND50, neutralization of SARS pseudovirus infection of 293T/ACE2 cells in [2] was over 100 µg/mL. In addition, the reactivity (absorbance at 450 nm) stood at 0.88 in the assay with RBD-Fc (SARS-CoV; human) [7], 0.65 in the assay with S1-C9 (SARS-CoV), 0.94 in [8] and 1.36 in [9].
